Consider 91 sequences from the supplement of paper PMC9112550, “Optimization of the antimicrobial peptide Bac7 by deep mutational scanning” (BMC Biology, 2022).
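Further: peptides expressed intracellularly from a pBAD plasmid library in pooled LB shake-flask culture, induced with 0.3% L-arabinose, DNA abundance read by NGS, three biological replicates, DESeq2 with apeglm shrinkage.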

The data set has as its system Escherichia coli TOP10. Kind of data set: shrunken log2 fold change of peptide-encoding DNA abundance (4.5 h post-induction vs induction); higher = less antimicrobial activity (less host growth inhibition). The following applies: time post-induction: 4.5 h; library: site-saturation at positions 5, 18, 19, 20.
In the case of RRIRGRPPRLPRPRPRPDMPPRP, the “shrunken log2 fold change” value came out at 0.168.
For RRIRGRPPRLPRPRPRPQAHPRP, the “shrunken log2 fold change” value turned out to be 0.441.
As for RRIRWRPPRLPRPRPRPNQHPRP, the figure is -0.071; as for RRIRNRPPRLPRPRPRPHFRPRP, 0.0231; as for RRIRCRPPRLPRPRPRPMPHPRP, -0.0714.
Turning to RRIRARPPRLPRPRPRPLCKPRP, the “shrunken log2 fold change” value was 0.326.
Turning to RRIRFRPPRLPRPRPRPCHYPRP, the “shrunken log2 fold change” value was -0.211.
Regarding RRIRPRPPRLPRPRPRPKFNPRP, the “shrunken log2 fold change” value is -0.404.
As for RRIRERPPRLPRPRPRPTFIPRP, the figure is -0.291.
As for RRIRPRPPRLPRPRPRPNSCPRP, the figure is -0.241.
Take RRIRMRPPRLPRPRPRPSWWPRP: the “shrunken log2 fold change” value came to 0.169.
As for RRIRLRPPRLPRPRPRPETKPRP, the figure is 0.00291.
As for RRIRYRPPRLPRPRPRPLPFPRP, the figure is -0.78; as for RRIRIRPPRLPRPRPRPIDAPRP, -0.215.
In the case of RRIRQRPPRLPRPRPRPMPDPRP it was -0.0292; in that of RRIRLRPPRLPRPRPRPIKDPRP, -0.374; in that of RRIRDRPPRLPRPRPRPMYEPRP, 0.183.
Consider RRIRTRPPRLPRPRPRPEGRPRP, for which the “shrunken log2 fold change” value was determined as 0.1.
In the case of RRIRMRPPRLPRPRPRPLRSPRP it was 2.47.
In the case of RRIRQRPPRLPRPRPRPMSRPRP it was -0.0221; in that of RRIRQRPPRLPRPRPRPPILPRP, -0.13; in that of RRIRCRPPRLPRPRPRPARAPRP, 0.471.
In the case of RRIRDRPPRLPRPRPRPINVPRP it was 0.0039.
On to RRIRNRPPRLPRPRPRPANPPRP, for which the “shrunken log2 fold change” value stood at 0.0813.
As for RRIRERPPRLPRPRPRPDPAPRP, the figure is 2.64; as for RRIRRRPPRLPRPRPRPTPFPRP, 0.632.
As for RRIRYRPPRLPRPRPRPWLRPRP, the figure is 0.0188; as for RRIRNRPPRLPRPRPRPVCFPRP, -0.162; as for RRIRKRPPRLPRPRPRPAAFPRP, 0.59.
In the case of RRIRLRPPRLPRPRPRPNWIPRP it was -0.583.
Turning to RRIRMRPPRLPRPRPRPDGWPRP, the “shrunken log2 fold change” value came to 1.48.
As for RRIRWRPPRLPRPRPRPMPFPRP, the figure is -0.133; as for RRIRDRPPRLPRPRPRPQSNPRP, -0.109.
As for RRIRRRPPRLPRPRPRPQSLPRP, the figure is -0.0788.
Regarding RRIRIRPPRLPRPRPRPLCKPRP, the “shrunken log2 fold change” value is -0.336.
With RRIRARPPRLPRPRPRPAWRPRP, the “shrunken log2 fold change” value came to 0.649.
In the case of RRIRNRPPRLPRPRPRPWQWPRP it was 0.144; in that of RRIRDRPPRLPRPRPRPALNPRP, -0.0576.
RRIRCRPPRLPRPRPRPGVRPRP: the “shrunken log2 fold change” value turned out to be 0.32.
In the case of RRIRLRPPRLPRPRPRPMIHPRP it was -0.186; in that of RRIRWRPPRLPRPRPRPNKRPRP, 0.149; in that of RRIRHRPPRLPRPRPRPEHMPRP, -0.177.
For RRIRHRPPRLPRPRPRPIWLPRP, the “shrunken log2 fold change” value was -0.00879.
On to RRIRERPPRLPRPRPRPQQCPRP, for which the “shrunken log2 fold change” value is -0.0909.
In the case of RRIRTRPPRLPRPRPRPNLHPRP it was -0.725; in that of RRIRPRPPRLPRPRPRPKFPPRP, 0.119; in that of RRIRGRPPRLPRPRPRPMMHPRP, 0.456.
As for RRIRQRPPRLPRPRPRPIYDPRP, the figure is -0.213; as for RRIRWRPPRLPRPRPRPENNPRP, -0.0683.
For the sequence RRIRKRPPRLPRPRPRPNYPPRP, the “shrunken log2 fold change” value is -0.175.
Regarding RRIRSRPPRLPRPRPRPFEGPRP, the “shrunken log2 fold change” value is 0.123.
In the case of RRIRHRPPRLPRPRPRPSGRPRP it was 0.0298; in that of RRIRGRPPRLPRPRPRPYYGPRP, -0.289.
Turning to RRIRDRPPRLPRPRPRPIAMPRP, the “shrunken log2 fold change” value came to 0.384.
RRIRSRPPRLPRPRPRPMIIPRP: the “shrunken log2 fold change” value is -0.182.
On to RRIRARPPRLPRPRPRPEVGPRP, for which the “shrunken log2 fold change” value amounted to 1.42.
As for RRIRKRPPRLPRPRPRPNKHPRP, the figure is -0.122.
Consider RRIRDRPPRLPRPRPRPVLVPRP, for which the “shrunken log2 fold change” value stood at 0.0945.
As for RRIRNRPPRLPRPRPRPKMWPRP, the figure is 0.279; as for RRIRCRPPRLPRPRPRPSTFPRP, -0.714; as for RRIRWRPPRLPRPRPRPYCQPRP, -0.694.
As for RRIRDRPPRLPRPRPRPCAHPRP, the figure is 0.07; as for RRIRARPPRLPRPRPRPLWIPRP, -0.0129; as for RRIRCRPPRLPRPRPRPEPCPRP, -0.0257.
As for RRIRLRPPRLPRPRPRPMWVPRP, the figure is -0.314; as for RRIRKRPPRLPRPRPRPWVMPRP, -0.251; as for RRIRNRPPRLPRPRPRPHHHPRP, -0.617.
In the case of RRIRLRPPRLPRPRPRPLHPPRP, the “shrunken log2 fold change” value was -0.0561.
As for RRIRERPPRLPRPRPRPVCYPRP, the figure is -0.266; as for RRIRWRPPRLPRPRPRPWFVPRP, -0.168.
Consider RRIRIRPPRLPRPRPRPHEMPRP, for which the “shrunken log2 fold change” value was -0.143.
As for RRIRWRPPRLPRPRPRPGHMPRP, the figure is -0.0823; as for RRIRFRPPRLPRPRPRPYKEPRP, -0.0907.
In the case of RRIRVRPPRLPRPRPRPNCMPRP it was -0.222; in that of RRIRTRPPRLPRPRPRPPWAPRP, 0.613; in that of RRIRNRPPRLPRPRPRPWFIPRP, -0.306.
In the case of RRIRQRPPRLPRPRPRPWTAPRP it was -0.264; in that of RRIRIRPPRLPRPRPRPHPRPRP, 0.192.
Regarding RRIRARPPRLPRPRPRPCYGPRP, the “shrunken log2 fold change” value was -0.246.
In the case of RRIRMRPPRLPRPRPRPRHPPRP it was 0.617; in that of RRIRERPPRLPRPRPRPYASPRP, -0.303; in that of RRIRDRPPRLPRPRPRPVSSPRP, -0.0849.
As for RRIRERPPRLPRPRPRPYPMPRP, the figure is -0.172; as for RRIRDRPPRLPRPRPRPLTGPRP, 0.266; as for RRIRQRPPRLPRPRPRPNYRPRP, 0.0444.
In the case of RRIRKRPPRLPRPRPRPYFHPRP it was -0.225.
Take RRIRFRPPRLPRPRPRPDATPRP: the “shrunken log2 fold change” value was 0.486.
As for RRIRRRPPRLPRPRPRPIDMPRP, the figure is 0.0233; as for RRIRYRPPRLPRPRPRPNWSPRP, 0.0306; as for RRIRRRPPRLPRPRPRPTIMPRP, 0.0494.
In the case of RRIRARPPRLPRPRPRPNLWPRP, the “shrunken log2 fold change” value is 0.467.
